Patent US20200317768A1 (published 2020)

T1: human FcγRIIaR extracellular domain, C-terminal His-tag (human, UniProt P12318 34-217)
T1 construct: also called human FcγRIIa (type R); FcgRIIaR; not shown: His-tag added to C-terminus
T1 chain: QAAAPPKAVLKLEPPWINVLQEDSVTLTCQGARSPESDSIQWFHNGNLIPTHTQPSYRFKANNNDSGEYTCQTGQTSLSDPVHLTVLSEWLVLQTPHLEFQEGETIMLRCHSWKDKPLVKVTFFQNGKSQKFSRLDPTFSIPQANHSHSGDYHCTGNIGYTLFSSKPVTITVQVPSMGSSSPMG


Molecular target: T1, human FcγRIIaR extracellular domain, …
Assay: SPR (Biacore), KD of SG1 / KD of variant;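 also: relative to parent M103205H795-SG1 carrying the SG1 human heavy chain constant region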

Binder | KD fold (SG1 = 1) [fold]
M103205H795-MY309/M103202L889-SK1 (antibody, human IgG1, kappa) heavy: QVTLKESGPVLVKPTETLTLTCTVSGIDLSHDDISWVRQAPGKGLEWVGIISYAGSTYYASWAKGRLTISKDTSKNQVVLTMTNMDPVDTATYYCARGVPAYSHGGDLWGQGTLVTVSSASTKGPSVFPLAPSSKSTSGGTAALGCLVKDYFPEPVTVSWNSGALTSGVHTFPAVLQSSGLYSLSSVVTVPSSSLGTQTYICNVNHKPSNTKVDKKVEPKSCDKTHTCPPCPAPELLTGPSVFLFPPKPKDTLMISRTPEVTCVVVDVSEEDPEVKFNWYVDGVEVHNAKTKPREEQYNSTYRVVSVLTVLHQDWLNGKEYKCKVSNKALPKPIEKTISKAKGQPREPQVYTLPPSREEMTKNQVSLTCLVKGFYPSDIAVEWESNGQPENNYKTTPMVLDSDGSFFLYSKLTVDKSRWQQGNVFSCSVMHEALHNHYTQKSLSLSP light: DIVMTQSPATLSLSPGERATLSCTSSQSVYHANWLSWFQQKPGQPPKLLIYWASTLAYGVPSRFSGSGSGTDFTLTISSLQPEDAATYYCAGGYGGGRYAFGQGTKVEIKRTVAAPSVFIFPPSDEQLKSGTASVVCLLNNFYPREAKVQWKVDNALQSGNSQESVTEQDSKDSTYSLSSTLTLSKADYEKHKVYACEVTHQGLSSPVTKSFNRGEC | 4.3
M103205H795-MY311/M103202L889-SK1 (antibody, human IgG1, kappa) heavy: QVTLKESGPVLVKPTETLTLTCTVSGIDLSHDDISWVRQAPGKGLEWVGIISYAGSTYYASWAKGRLTISKDTSKNQVVLTMTNMDPVDTATYYCARGVPAYSHGGDLWGQGTLVTVSSASTKGPSVFPLAPSSKSTSGGTAALGCLVKDYFPEPVTVSWNSGALTSGVHTFPAVLQSSGLYSLSSVVTVPSSSLGTQTYICNVNHKPSNTKVDKKVEPKSCDKTHTCPPCPAPELLTGPSVFLFPPKPKDTLMISRTPEVTCVVVDVSEEDPEVKFNWYVDGVEVHNAKTKPREELYNSTYRVVSVLTVLHQDWLNGKEYKCKVSNKALPKPIEKTISKAKGQPREPQVYTLPPSREEMTKNQVSLTCLVKGFYPSDIAVEWESNGQPENNYKTTPPVLDSDGSFFLYSKLTVDKSRWQQGNVFSCSVMHEALHNHYTQKSLSLSP light: DIVMTQSPATLSLSPGERATLSCTSSQSVYHANWLSWFQQKPGQPPKLLIYWASTLAYGVPSRFSGSGSGTDFTLTISSLQPEDAATYYCAGGYGGGRYAFGQGTKVEIKRTVAAPSVFIFPPSDEQLKSGTASVVCLLNNFYPREAKVQWKVDNALQSGNSQESVTEQDSKDSTYSLSSTLTLSKADYEKHKVYACEVTHQGLSSPVTKSFNRGEC | 2.4
M103205H795-MY310/M103202L889-SK1 (antibody, human IgG1, kappa) heavy: QVTLKESGPVLVKPTETLTLTCTVSGIDLSHDDISWVRQAPGKGLEWVGIISYAGSTYYASWAKGRLTISKDTSKNQVVLTMTNMDPVDTATYYCARGVPAYSHGGDLWGQGTLVTVSSASTKGPSVFPLAPSSKSTSGGTAALGCLVKDYFPEPVTVSWNSGALTSGVHTFPAVLQSSGLYSLSSVVTVPSSSLGTQTYICNVNHKPSNTKVDKKVEPKSCDKTHTCPPCPAPELLTGPSVFLFPPKPKDTLMISRTPEVTCVVVDVSEEDPEVKFNWYVDGVEVHNAKTKPREEQYNSTYRVVSVLTVLHQDWLNGKEYKCKVSNTALPKPIEKTISKAKGQPREPQVYTLPPSREEMTKNQVSLTCLVKGFYPSDIAVEWESNGQPENNYKTTPPVLDSDGSFFLYSKLTVDKSRWQQGNVFSCSVMHEALHNHYTQKSLSLSP light: DIVMTQSPATLSLSPGERATLSCTSSQSVYHANWLSWFQQKPGQPPKLLIYWASTLAYGVPSRFSGSGSGTDFTLTISSLQPEDAATYYCAGGYGGGRYAFGQGTKVEIKRTVAAPSVFIFPPSDEQLKSGTASVVCLLNNFYPREAKVQWKVDNALQSGNSQESVTEQDSKDSTYSLSSTLTLSKADYEKHKVYACEVTHQGLSSPVTKSFNRGEC | 2

The next lines start with the values.

KD fold (SG1 = 1) [fold] | Binder
1.3 | M103205H795-MY308/M103202L889-SK1 (antibody, human IgG1, kappa) heavy: QVTLKESGPVLVKPTETLTLTCTVSGIDLSHDDISWVRQAPGKGLEWVGIISYAGSTYYASWAKGRLTISKDTSKNQVVLTMTNMDPVDTATYYCARGVPAYSHGGDLWGQGTLVTVSSASTKGPSVFPLAPSSKSTSGGTAALGCLVKDYFPEPVTVSWNSGALTSGVHTFPAVLQSSGLYSLSSVVTVPSSSLGTQTYICNVNHKPSNTKVDKKVEPKSCDKTHTCPPCPAPELLTGPSVFLFPPKPKDTLMISRTPEVTCVVVDVSEEDPEVKFNWYVDGVEVHNAKTKPREEQYNSTYRVVSVLTVLHQDWLNGKEYKCKVSNKALPKPIEKTISKAKGQPREPQVYTLPPSREEMTKNQVSLTCLVKGFYPSDIAVEWESNGQPENNYKTTPPVLDSDGSFFLYSKLTVDKSRWQQGNVFSCSVMHEALHNHYTQKSLSLSP light: DIVMTQSPATLSLSPGERATLSCTSSQSVYHANWLSWFQQKPGQPPKLLIYWASTLAYGVPSRFSGSGSGTDFTLTISSLQPEDAATYYCAGGYGGGRYAFGQGTKVEIKRTVAAPSVFIFPPSDEQLKSGTASVVCLLNNFYPREAKVQWKVDNALQSGNSQESVTEQDSKDSTYSLSSTLTLSKADYEKHKVYACEVTHQGLSSPVTKSFNRGEC
6.5 | M103205H795-MY312/M103202L889-SK1 (antibody, human IgG1, kappa) heavy: QVTLKESGPVLVKPTETLTLTCTVSGIDLSHDDISWVRQAPGKGLEWVGIISYAGSTYYASWAKGRLTISKDTSKNQVVLTMTNMDPVDTATYYCARGVPAYSHGGDLWGQGTLVTVSSASTKGPSVFPLAPSSKSTSGGTAALGCLVKDYFPEPVTVSWNSGALTSGVHTFPAVLQSSGLYSLSSVVTVPSSSLGTQTYICNVNHKPSNTKVDKKVEPKSCDKTHTCPPCPAPELLTGPSVFLFPPKPKDTLMISRTPEVTCVVVDVSEEDPEVKFNWYVDGVEVHNAKTKPREEQYNSTYRVVSVLTVLHQDWLNGKEYKCKVSNTALPKPIEKTISKAKGQPREPQVYTLPPSREEMTKNQVSLTCLVKGFYPSDIAVEWESNGQPENNYKTTPMVLDSDGSFFLYSKLTVDKSRWQQGNVFSCSVMHEALHNHYTQKSLSLSP light: DIVMTQSPATLSLSPGERATLSCTSSQSVYHANWLSWFQQKPGQPPKLLIYWASTLAYGVPSRFSGSGSGTDFTLTISSLQPEDAATYYCAGGYGGGRYAFGQGTKVEIKRTVAAPSVFIFPPSDEQLKSGTASVVCLLNNFYPREAKVQWKVDNALQSGNSQESVTEQDSKDSTYSLSSTLTLSKADYEKHKVYACEVTHQGLSSPVTKSFNRGEC
0.8 | M103205H795-MY318/M103202L889-SK1 (antibody, human IgG1, kappa) heavy: QVTLKESGPVLVKPTETLTLTCTVSGIDLSHDDISWVRQAPGKGLEWVGIISYAGSTYYASWAKGRLTISKDTSKNQVVLTMTNMDPVDTATYYCARGVPAYSHGGDLWGQGTLVTVSSASTKGPSVFPLAPSSKSTSGGTAALGCLVKDYFPEPVTVSWNSGALTSGVHTFPAVLQSSGLYSLSSVVTVPSSSLGTQTYICNVNHKPSNTKVDKKVEPKSCDKTHTCPPCPAPELLLGPSVFLFPPKPKDTLMISRTPEVTCVVVDVSEEDPEVKFNWYVDGVEVHNAKTKPREEQYNSTYRVVSVLTVLHQDWLNGKEYKCKVSNTALPKPIEKTISKAKGQPREPQVYTLPPSREEMTKNQVSLTCLVKGFYPSDIAVEWESNGQPENNYKTTPMVLDSDGSFFLYSKLTVDKSRWQQGNVFSCSVMHEALHNHYTQKSLSLSP light: DIVMTQSPATLSLSPGERATLSCTSSQSVYHANWLSWFQQKPGQPPKLLIYWASTLAYGVPSRFSGSGSGTDFTLTISSLQPEDAATYYCAGGYGGGRYAFGQGTKVEIKRTVAAPSVFIFPPSDEQLKSGTASVVCLLNNFYPREAKVQWKVDNALQSGNSQESVTEQDSKDSTYSLSSTLTLSKADYEKHKVYACEVTHQGLSSPVTKSFNRGEC
